The values below come from patent US20250136695A1.

The target in experiment [1] is PDL1 expressed on recombinant CHO cells (CHO-K1/PDL1; aAPC CHO-PDL1) (UniProt Q9NZQ7).
In experiment [2] the target is PDL1 (Fc-cut) antigen (UniProt Q9NZQ7). In words: ELISA on coated PDL1 (Fc-cut), IgG (H+L) secondary antibody; PBS blank 0.121 / 0.102.
Experiment [3] shares this target. In words: ELISA on coated PDL1 (Fc-cut), VHH secondary antibody; PBS blank 0.181 / 0.212.

Sequence of PDL1 (Fc-cut) antigen (Q9NZQ7 19-238 limits assumed): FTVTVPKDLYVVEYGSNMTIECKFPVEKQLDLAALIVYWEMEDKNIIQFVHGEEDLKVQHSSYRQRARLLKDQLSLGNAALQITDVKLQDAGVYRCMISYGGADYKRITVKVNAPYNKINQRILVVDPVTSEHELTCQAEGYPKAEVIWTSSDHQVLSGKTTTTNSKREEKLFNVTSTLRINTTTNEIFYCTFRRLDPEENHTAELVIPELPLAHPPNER
Sequence of PDL1 expressed on recombinant CHO cells (CHO-K1/PDL1; aAPC CHO-PDL1) (Q9NZQ7 19-290 limits assumed): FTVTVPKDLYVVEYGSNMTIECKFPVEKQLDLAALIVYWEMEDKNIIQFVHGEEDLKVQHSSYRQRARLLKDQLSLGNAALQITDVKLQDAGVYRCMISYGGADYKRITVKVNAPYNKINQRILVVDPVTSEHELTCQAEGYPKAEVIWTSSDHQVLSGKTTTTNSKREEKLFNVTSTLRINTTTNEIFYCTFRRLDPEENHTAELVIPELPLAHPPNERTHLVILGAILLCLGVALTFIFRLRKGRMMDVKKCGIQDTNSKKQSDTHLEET

In the case of Atezolizumab (antibody), the EC50 of the PD1/PDL1 Block Assay (luciferase fold of induction, Jurkat-PD-1-NFAT-Luc + aAPC CHO-PDL1) in experiment [1] is 6.04 µg/mL.
In the case of Unimmunized serum, in the experiment with PDL1 (Fc-cut) antigen [2], the OD450, serum 1:1K, well 1 of 2 worked out at 0.189; the OD450, serum 1:1K, well 2 of 2 was determined as 0.176; the OD450, serum 1:2K, well 1 of 2 was 0.145; the OD450, serum 1:2K, well 2 of 2 is 0.159. In the experiment with PDL1 (Fc-cut) antigen [2], this substance had an OD450, serum 1:4K, well 1 of 2 of 0.124; an OD450, serum 1:4K, well 2 of 2 of 0.12; an OD450, serum 1:8K, well 1 of 2 of 0.107; an OD450, serum 1:8K, well 2 of 2 of 0.116. In the experiment with PDL1 (Fc-cut) antigen [2], this substance had an OD450, serum 1:16K, well 1 of 2 of 0.118; an OD450, serum 1:16K, well 2 of 2 of 0.12; an OD450, serum 1:32K, well 1 of 2 of 0.125; an OD450, serum 1:32K, well 2 of 2 of 0.118. In the experiment with PDL1 (Fc-cut) antigen [2], this substance registered an OD450, serum 1:64K, well 1 of 2 of 0.141 and an OD450, serum 1:64K, well 2 of 2 of 0.115. Further, in the experiment with PDL1 (Fc-cut) antigen [3], the OD450, serum 1:1K, well 1 of 2 stood at 0.176; the OD450, serum 1:1K, well 2 of 2 is 0.166; the OD450, serum 1:2K, well 1 of 2 was found to be 0.194; the OD450, serum 1:2K, well 2 of 2 was found to be 0.213. In the experiment with PDL1 (Fc-cut) antigen [3], this substance registered an OD450, serum 1:4K, well 1 of 2 of 0.207; an OD450, serum 1:4K, well 2 of 2 of 0.236; an OD450, serum 1:8K, well 1 of 2 of 0.205; an OD450, serum 1:8K, well 2 of 2 of 0.236. In the experiment with PDL1 (Fc-cut) antigen [3], this substance gave an OD450, serum 1:16K, well 1 of 2 of 0.232; an OD450, serum 1:16K, well 2 of 2 of 0.249; an OD450, serum 1:32K, well 1 of 2 of 0.224; an OD450, serum 1:32K, well 2 of 2 of 0.253. Further, in the experiment with PDL1 (Fc-cut) antigen [3], the OD450, serum 1:64K, well 1 of 2 is 0.201 and the OD450, serum 1:64K, well 2 of 2 was determined as 0.224.
